The values that follow come from the supplement of paper PMC12042874.

The nature of the data set: amyloid nucleation score (Sup35N fusion, yeast selection) (log enrichment); library NNK2; higher = more nucleation; inactive = no reads after selection. In outline: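 The nucleation score is the DiMSum log enrichment of output over input reads, centred on the mode score of non-aggregating sequences. Only sequences with 100 or more input reads were scored, using Illumina sequencing of input and output plasmid inserts. Psi-negative yeast expressing Sup35N fused to peptides of 20 random codons were induced 24 hours with 100 μM copper sulfate and grown 7 days at 30°C on medium lacking adenine and uracil.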

± gives the uncertainty stated by the source.

The substance SDPALVYRITYVIQ gave an amyloid nucleation score of -0.008 ± 0.49. With PMFCSLVLRI, the amyloid nucleation score was -0.383 ± 0.41. Turning to VMDCLMLSNMHLYIVLESKS, the amyloid nucleation score worked out at 5.08 ± 0.061. For IVYKGFLREN, the amyloid nucleation score result is “inactive”. With LLYTDYMMIYCIAFMLSDDY, the amyloid nucleation score is -0.916 ± 1.1.

Consider HLGKASYREFSFFKGLGY, for which the amyloid nucleation score result was “inactive”. In the case of LSHMPDMALAKPWHRARD it was 5.04 ± 0.076; in that of YSLVRIFDGVWITRDSCNIL, “inactive”. In the case of SSCIFYFTIRTNQTYLGI it was 6.93 ± 0.06. In turn, PDFLAVGHVSTFVHFTVETG registered an amyloid nucleation score of 1.16 ± 0.38.

Take GVYLGSPSYVDLSVALFSIV: the amyloid nucleation score worked out at 0.073 ± 0.29. For HIRLRY, the amyloid nucleation score is -0.101 ± 0.8. As to MYSLSAAFT, the amyloid nucleation score entry was “inactive”. In the case of VGSFIFLLRCWLSCAIAGVQ it was -0.323 ± 0.65. On to MYTSLLVYML, for which the amyloid nucleation score was determined as 3.78 ± 0.048. For the substance GALYLRDVLVICIMCGKIRY, the amyloid nucleation score was 2.73 ± 0.1. Turning to TVVGSLSVVF, the amyloid nucleation score is 1.47 ± 0.38.

In turn, VFSSYYRSKEFTCIVLLGL came in with an amyloid nucleation score of -0.026 ± 0.33. VAHKSPFIAHFTWVILAYGM: the amyloid nucleation score is 0.211 ± 0.61.

Substance HISVISTNEFTRIRASAAHA had an amyloid nucleation score of 1.38 ± 0.67.

TSVYPRGYFPVSCACYFLLE showed an amyloid nucleation score of -1.3 ± 0.48.

In the case of RVYMCCSSYCGNITKVQ, the amyloid nucleation score worked out at 8.027 ± 0.022. In the case of FSPLC it was 1.83 ± 0.14. For SYHRS, the amyloid nucleation score is 0.086 ± 0.24. ICWPSTVDEGLPFYLWIYAM yielded an amyloid nucleation score of 0.23 ± 0.39. As to RALVRLHSDYMLWRFMVADS, the amyloid nucleation score came to 0.399 ± 0.42.

In the case of YGVFYCSMPYCTSWGIHCVL, the amyloid nucleation score came to 7.19 ± 0.077.

KSMLLMIMSSFGSDIWHITS yielded an amyloid nucleation score of -0.337 ± 1.1. HLFNGSGGLFSLTRSFMKS registered an amyloid nucleation score of -0.228 ± 1.1. On to HNKVLGSSHHKLRQIPTCMC, for which the amyloid nucleation score stood at 0.484 ± 0.8. ISLRMKEHVICSLVPFMSQI yielded an amyloid nucleation score of 0.664 ± 0.22. The substance LVSESTLINSFLQIWFWSTL registered an amyloid nucleation score of -0.324 ± 1.1. For GIVYVALSHYLAVNTKVFMP, the amyloid nucleation score is 0.477 ± 0.66. As to LASTDTWHCVGGEFHKSA, the amyloid nucleation score was -0.571 ± 0.28. Substance YNCLRMELVLSHKGDLTLM had an amyloid nucleation score of 5.25 ± 0.091.

In the case of QYALLVY, the amyloid nucleation score result is “inactive”. On to FLSVTFFRLIRCMAL, for which the amyloid nucleation score result is “inactive”. KGSIRCPRVFHQFRFLMG registered an amyloid nucleation score of -0.302 ± 0.74. Consider GIIGYDVKNKHHLTVGLRFI, for which the amyloid nucleation score is -0.285 ± 0.24. With ITKPLVALKNGYMVL, the amyloid nucleation score is -0.177 ± 0.56. Turning to NRNLDGFLPWNVHEAVGL, the amyloid nucleation score was -0.003 ± 0.42. Then CDILPDLPGRFALVRKASHN, with 1.11 ± 0.45; and YYINVDQESGSWMRTSVKGA, with 0.207 ± 0.41. For HCPVSVVTRHGLTVNDVRHY, the amyloid nucleation score was -0.062 ± 0.46.

Substance VLNCNRYFRCSANNIEASES yielded an amyloid nucleation score of 0.27 ± 0.56.

As for ENGTLTIYMVAL, the amyloid nucleation score was 4.39 ± 0.075. Then KSIVNL, with 0.465 ± 0.41; and GGFSLMIFVCAGSHLG, with 5.26 ± 0.07. In the case of GIPMSSPNGLDTYSTPMH, the amyloid nucleation score is 2.63 ± 0.074. For AIAAHFGLMPMCYLCTG, the amyloid nucleation score stood at 7.25 ± 0.079. In turn, HLVSSRGRMWPPFAPVGKQD displayed an amyloid nucleation score of 0.492 ± 0.64.

In the case of AGRLYNISNY, the amyloid nucleation score result was “inactive”. In turn, GADGISCFGISDKLGYDKFL displayed an amyloid nucleation score of -0.1 ± 1. Take RSILSCEGPDSLLEAFNEQI: the amyloid nucleation score stood at 0.625 ± 0.64. In the case of NRKCSAESMTEGVRPLDSHY it was “inactive”. KSWHPRFQSDMKFHLFCLVV registered an amyloid nucleation score of -0.19 ± 0.56. In the case of IVCSC, the amyloid nucleation score was -0.194 ± 0.45.
